Measurements as given in patent US20230212268A1 (UNM RAINFOREST INNOVATIONS, published 2023).

Experiments:
[1] = target: T1, recombinant TAFV glycoprotein (TAFV (Tai Forest virus), UniProt Q66810 33-650); assay: maximal binding from ELISA dose-response fit
T1 sequence: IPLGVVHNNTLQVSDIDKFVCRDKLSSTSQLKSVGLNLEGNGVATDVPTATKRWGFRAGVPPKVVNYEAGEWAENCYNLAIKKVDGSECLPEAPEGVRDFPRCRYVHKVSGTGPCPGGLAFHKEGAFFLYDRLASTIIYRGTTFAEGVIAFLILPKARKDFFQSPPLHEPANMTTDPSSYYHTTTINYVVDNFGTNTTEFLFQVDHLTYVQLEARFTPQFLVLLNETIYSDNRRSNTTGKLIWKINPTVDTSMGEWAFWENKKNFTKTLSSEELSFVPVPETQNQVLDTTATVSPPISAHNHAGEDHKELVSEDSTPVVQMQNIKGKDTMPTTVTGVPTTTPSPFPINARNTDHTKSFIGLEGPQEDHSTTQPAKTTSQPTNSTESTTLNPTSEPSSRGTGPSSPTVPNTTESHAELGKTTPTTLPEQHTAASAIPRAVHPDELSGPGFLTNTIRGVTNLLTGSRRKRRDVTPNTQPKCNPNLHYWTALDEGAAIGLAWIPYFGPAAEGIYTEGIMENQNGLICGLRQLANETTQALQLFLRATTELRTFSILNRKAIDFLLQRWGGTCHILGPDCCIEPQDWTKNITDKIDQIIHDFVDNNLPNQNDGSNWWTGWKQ

[2] = target: T1, recombinant TAFV glycoprotein; assay: ELISA dose-response fit, reference scFv22-1
[3] = target: T2, recombinant EBOV glycoprotein (EBOV (Zaire ebolavirus), UniProt Q05320 33-650); assay: ELISA dose-response fit, reference scFv22-1
T2 sequence: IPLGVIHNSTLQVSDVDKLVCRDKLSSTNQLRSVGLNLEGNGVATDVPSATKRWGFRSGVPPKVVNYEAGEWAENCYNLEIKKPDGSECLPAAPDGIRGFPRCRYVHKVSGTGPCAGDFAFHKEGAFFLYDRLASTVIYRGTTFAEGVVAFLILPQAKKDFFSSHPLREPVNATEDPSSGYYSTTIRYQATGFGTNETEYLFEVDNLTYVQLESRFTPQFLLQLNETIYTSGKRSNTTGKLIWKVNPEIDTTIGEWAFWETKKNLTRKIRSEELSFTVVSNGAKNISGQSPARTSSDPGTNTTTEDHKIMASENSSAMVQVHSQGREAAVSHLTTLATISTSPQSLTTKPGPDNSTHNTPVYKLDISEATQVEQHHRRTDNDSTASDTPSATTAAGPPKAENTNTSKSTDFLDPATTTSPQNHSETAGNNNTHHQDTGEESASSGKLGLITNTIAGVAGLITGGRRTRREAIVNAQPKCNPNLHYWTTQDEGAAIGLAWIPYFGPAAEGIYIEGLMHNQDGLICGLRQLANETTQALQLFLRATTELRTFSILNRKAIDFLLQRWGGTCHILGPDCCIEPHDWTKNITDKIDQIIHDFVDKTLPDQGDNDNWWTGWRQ

[4] = target: T3, recombinant RESTV glycoprotein (RESTV (Reston ebolavirus), UniProt Q66799 34-651); assay: ELISA dose-response fit, reference scFv22-1
T3 sequence: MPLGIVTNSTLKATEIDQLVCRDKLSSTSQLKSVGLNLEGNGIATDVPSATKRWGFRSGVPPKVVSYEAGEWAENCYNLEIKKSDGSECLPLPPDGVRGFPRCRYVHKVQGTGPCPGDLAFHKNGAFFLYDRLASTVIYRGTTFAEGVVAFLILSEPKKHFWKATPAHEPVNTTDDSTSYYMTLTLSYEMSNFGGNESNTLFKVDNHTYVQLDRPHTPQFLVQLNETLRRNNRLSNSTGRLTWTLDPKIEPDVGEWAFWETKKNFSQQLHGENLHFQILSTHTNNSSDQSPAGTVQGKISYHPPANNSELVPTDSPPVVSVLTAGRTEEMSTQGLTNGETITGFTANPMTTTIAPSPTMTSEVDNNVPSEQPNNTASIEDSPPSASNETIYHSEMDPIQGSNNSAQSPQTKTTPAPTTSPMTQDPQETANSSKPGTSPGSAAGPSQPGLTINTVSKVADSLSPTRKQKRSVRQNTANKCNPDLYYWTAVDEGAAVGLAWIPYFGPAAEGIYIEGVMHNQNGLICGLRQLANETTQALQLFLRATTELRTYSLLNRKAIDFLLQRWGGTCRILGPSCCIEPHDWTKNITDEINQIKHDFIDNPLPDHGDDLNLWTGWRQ

[5] = target: T4, recombinant MARV glycoprotein (MARV (marburgvirus, Ravn), UniProt Q1PDC7 19-648); assay: ELISA dose-response fit, reference scFv22-1
T4 sequence: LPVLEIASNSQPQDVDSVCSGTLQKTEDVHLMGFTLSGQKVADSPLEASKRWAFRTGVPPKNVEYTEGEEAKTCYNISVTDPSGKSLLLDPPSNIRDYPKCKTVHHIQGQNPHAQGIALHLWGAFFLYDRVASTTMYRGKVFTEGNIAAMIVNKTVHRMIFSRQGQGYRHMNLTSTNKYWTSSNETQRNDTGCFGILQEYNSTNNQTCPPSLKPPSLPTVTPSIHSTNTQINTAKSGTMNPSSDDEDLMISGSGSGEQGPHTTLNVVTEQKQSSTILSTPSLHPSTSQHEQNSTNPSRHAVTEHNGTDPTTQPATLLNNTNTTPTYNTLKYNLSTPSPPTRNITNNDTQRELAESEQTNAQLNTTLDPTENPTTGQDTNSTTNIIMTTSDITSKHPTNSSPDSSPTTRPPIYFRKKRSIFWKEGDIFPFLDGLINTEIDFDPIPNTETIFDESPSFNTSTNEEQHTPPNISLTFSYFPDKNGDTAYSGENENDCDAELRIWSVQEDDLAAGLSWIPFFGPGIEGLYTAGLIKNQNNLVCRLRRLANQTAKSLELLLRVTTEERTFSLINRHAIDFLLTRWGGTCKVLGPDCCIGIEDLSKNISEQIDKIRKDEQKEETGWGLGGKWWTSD

B1: EbovGPscFv4-2 (scFv)
scFv: MAWSHPQFEKTGSGGAELVKSGASVKLSCTASGFNIKDDYMHWVKQRPEQGLEWIGWIDPENGDTEYASKFQGKATITADTSSNTAYLQLSSLTSEDTAVYYCTTYYYGSAWFAYWGQGTLVTVSAGGGGSGGGGSGGGGSGGGGSASLSVSVGETVTITCRASGNIHNYLAWYQQKQGKSPQLLVYNAKTLADGVPSRFSGSGSGTQYSLKINNLQPEDFGSYYCQHFWSTPYTFGGGTKLEIKRADAAPTVSIFPPSSEQLTSGGASVVCFLNNFTHCQELQQDECS
With B1 the Bmax signal [1] was 280000 relative absorbance units, the “fold affinity against scFv22-1” value [2] was about 2 fold and the “fold affinity against scFv22-1” value [3] was about 2 fold. For the same binder, the “fold affinity against scFv22-1” value [4] was about 2 fold and the “fold affinity against scFv22-1” value [5] was about 2 fold.
